Reference: article PMC3828344

How the values were obtained:
[1] = biological target: T1, murine norovirus particle (capsid of 180 VP1) (Murine norovirus 1 (MNV-1, clone CW-1)) (UniProt B7XA03); assay: electrochemical aptasensor (SWV); conditions: thiol (end not stated in material); GSB: 50 mM NaCl, 20 mM Tris-HCl pH 7.4, 3 mM MgCl2, 5 mM KCl, room temperature (anisotropy ~1 h; filter 24 h); aptasensor: Dulbecco's PBS, 25 C, 1 h
T1 sequence: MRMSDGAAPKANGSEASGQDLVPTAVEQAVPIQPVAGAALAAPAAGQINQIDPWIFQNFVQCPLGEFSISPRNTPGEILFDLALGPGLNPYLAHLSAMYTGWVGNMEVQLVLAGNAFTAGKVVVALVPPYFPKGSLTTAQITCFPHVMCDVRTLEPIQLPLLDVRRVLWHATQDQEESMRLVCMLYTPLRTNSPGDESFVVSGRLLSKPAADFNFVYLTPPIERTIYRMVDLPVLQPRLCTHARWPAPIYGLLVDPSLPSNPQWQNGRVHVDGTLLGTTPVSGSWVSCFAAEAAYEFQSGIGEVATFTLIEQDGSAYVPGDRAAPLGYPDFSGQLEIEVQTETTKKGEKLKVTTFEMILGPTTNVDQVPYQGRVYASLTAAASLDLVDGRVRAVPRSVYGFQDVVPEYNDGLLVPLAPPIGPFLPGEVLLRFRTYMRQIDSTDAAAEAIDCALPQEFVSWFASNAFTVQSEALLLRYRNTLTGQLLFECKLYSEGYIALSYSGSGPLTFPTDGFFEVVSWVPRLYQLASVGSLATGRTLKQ

[2] = biological target: T1, murine norovirus particle (capsid of 180 VP1) (Murine norovirus 1 (MNV-1, clone CW-1)); assay: filter binding (polycarbonate)

GCTAGCGAATTCCGTACGAAGGGCGAATTCCACATTGGGCTGCAGCCCGGGGGATCC [thiolated AG3 (aptasensor)]
binding signal (% of current decrease (110.6 to 34.6 uA)) [1]: 100

GCTAGCGAATTCCGTACGAAGGGCGAATTCCACATTGGGCTGCAGCCCGGGGGATCC [AG3]
K half [2]: 0.1 pM
